# Assay results: patent US10851152B2, “Polymerized peptide and gel having collagen-like structure” (WASEDA UNIVERSITY, priority 2015, dated 2020)
# No end group written: not given here.
# What was measured:
# [1] = Thermal stability of hydrogel (sinking of stainless ball); assay type: physicochemical; conditions: hydrogel of 1% (w/v) peptide; 10 min per temperature
# Description: After mounting the stainless ball on the hydrogel prepared, they were moved to a thermostatic device, and were left to stand for 10 min at various temperatures between 35° C. and 95° C. Whether gel collapse had occurred was determined by judging the sinking of the stainless ball.
# [2] = Remaining thiol group (Ellman's reagent) in oxidative polymerization reaction; assay type: physicochemical; conditions: 10% DMSO, peptide 1% (w/v)
# Description: Degassed water was used to prepare a peptide solution having a concentration of 1.11% (w/v), and the solution was then put into a PCR tube. After heating this solution at 80° C. for 5 min, it was then left to sand still at 4° C. overnight. By adding DMSO to this solution, there was prepared a peptide solution having a final concentration of 10% DMSO, peptide 1% (w/v). The PCR tube was then filled with a mineral oil in a way such that the mineral oil covered the surface of the solution. In every measurement, the mineral oil was eliminated from the peptide solution to prepare a peptide solution for oxidation monitoring. Ellman's reagent was prepared in a way such that 9 mg/ml of DTNB was present in 50 mM of a phosphate buffer solution (pH 8.4). 33 mM phosphate buffer solution (pH 8.4) and Ellman's reagent 1.5 mg/ml were left to stand for […], then a light absorbance was then measured after a solution with a final concentration of peptide 0.167 mg/ml. Recorded were changes in absorbance with time, with a moment when DMSO was added being a starting point (0 hour). Since the Ellman's reagent generates 5-mercapto-2-nitrobenzoate (λ max=412 nm, ε=1.55×10^4) depending on the amount of thiol groups (referred to as “SH groups” hereunder) in the peptide, measured was a absorbance at 412 nm. After the measurement, optical path length was compensated by measuring absorbance at 997 nm and 900 nm.
# [3] = Hydrogel stability to reduction treatment (DTT) or water with pipetting; assay type: physicochemical; conditions: water added instead of reducing solution; pipetting about 90 times/min
# Description: There, verification was made on whether gel caused a collapse by breaking the disulfide cross-linking by a reduction treatment. A reducing solution of 100 μl (100 mM DTT, 50 mM phosphate buffer solution (pH 8.4)) or water was added to the hydrogel (30 μl) prepared. […] Then, pipetting procedure was respectively performed at a frequency of about 90 times/min and a volume of 100 μl/each time, using a yellow tip (up to 200 μl).
# [4] = CD spectrum measurement of triple-helical structure and its thermal stability; assay type: physicochemical; conditions: 225 nm; temperature gradient 18° C./h
# Description: The structure of the peptide was confirmed by CD spectrum (circular dichroism spectrometer J-820, JASCO Corporation). A peptide powder was dissolved in a degassed 0.05% TFA/H2O to prepare a solution of 1 mg/ml. After heating at 80° C. for 5 min, the solution was left to stand at 4° C. overnight to cause refolding as a measurement sample. CD spectrum was measured under the conditions of: temperature 4° C., 37° C., 80° C.; cell length 0.05 cm; sensitivity standard (100 mdeg); measurement wavelength 250 to 190 nm; data collection interval 0.2 nm; scanning speed 50 nm/min; response 0.5 sec; band width 1 nm; cumulated number 4. A signal obtained (θobs) was expressed as a residue average molar ellipticity (θmrw). θmrw was calculated by the following formula.
# A thermal stability of the triple-helical structure was observed by monitoring θmrw, 225 associated with a change in temperature. The measurement conditions were: 4 to 75° C. or 4 to 90° C.; cell length 0.05 cm; measurement wavelength 225 nm; data collection interval 0.5° C.; temperature gradient 18° C./h; sensitivity standard (100 mdeg); response 2 sec; band width 1 nm. It was determined that the triple-helical structure completely turned into a random coil structure in a region where the signal was linearly diminishing.
# [5] = Hydrogel formation judged by holding of a stainless ball; assay type: physicochemical; set-up: key to gel formation, Time (hour) 9 / gel formation, Time (hour) 12 / gel formation, Time (hour) 15 / gel formation, Time (hour) 24 / gel formation, Time (hour) 32 / gel formation, Time (hour) 74 / gel formation, Peptide concentration 0.1% (w/v) / gel formation, Peptide concentration 0.2% (w/v) / gel formation, Peptide concentration 0.3% (w/v) / gel formation, Peptide concentration 0.5% (w/v) / gel formation, Peptide concentration 0.7% (w/v) / gel formation, Peptide concentration 1.0% (w/v): ◯: Gelated; X: Failed to gelate
# Description: Degassed water was used to prepare a peptide solution having a concentration of 1.11% (w/v) or 1.66% (w/v), and the solution was then put into a PCR tube. After heating this solution at 80° C. for 5 min using a polymerase chain reaction (PCR) machine (TaKaRa PCR Thermal Cycler, TAKARA BIO INC.), the solution was then left to stand at 4° C. overnight. By adding DMSO and water to this solution, there was prepared a peptide solution having a concentration of 10% DMSO, 0.1 to 1.5% (w/v). The PCR tube was then filled with a mineral oil in a way such that the mineral oil covered the liquid surface, followed by allowing the solution to stand at room temperature for a given period of time to achieve a gel. Then, gel formation was determined by looking at whether a stainless ball could be held by the gel.
# [6] = tested on: human dermal fibroblasts (HDF); assay: Cell adhesion assay with multifunctional polymerized gel; assay type: cell-based; conditions: gels with 1% by weight CCC2-GFOGER (short) triple-chain peptide unless ligand free; 37° C., three hours
# Description: CCC2-GPOGPR (short) (SEQ ID NO. 10), CC2-GPOGPR (short) (SEQ ID NO. 23) or C2-GPOGPR (short) (SEQ ID NO. 24) was respectively dissolved in a degassed ultrapure water, followed by heating it at 80° C. for 5 min, and then stranded at 4° C. overnight to form triple helix. These were mixed at various ratios, and DMSO was then added thereto in a way such that a final concentration became 10%, followed by adding them into a 96-well plate by 50 μL each. At that time, a triple-chain peptide containing CCC2-GFOGER (short) (SEQ ID NO. 11) of a weight ratio 1% was added to all the peptide mixture liquids, and those to which the triple-chain peptide was not added were recited as “Ligand-free.” This plate was then left to stand Mill in a container filled with 10% DMSO for four days or longer to turn the peptide solution into a gel. These gels were able to dilute DMSO by immersion in a cell culture medium overnight, and then used in the following experiments employing cells. Here, type I collagen was used as a positive control.
# The human dermal fibroblasts (HDF) were stripped with 0.05% trypsin/EDTA, followed by centrifuged at 800 rpm in a 15 mL tube to collect the cells. […]
# human fibroblast (HDF) = assay: Adhesion of human fibroblasts to polymerized peptide with RGD motif linked via linker; assay type: cell-based; conditions: 37° C., about an hour
# Description: CCC2-KGHRGF (SEQ ID NO. 18) was synthesized by a method similar to that of example 2. After forming triple helix with such CCC2-KGHRGF (SEQ ID NO: 18) at 1.11 mg/ml, DMSO was added to the concentration of 10%, and a mineral oil was then layered thereon, followed by oxidized and polymerized at room temperature for a week. Next, the polymerized peptide employing CCC2-KGHRGF (SEQ ID NO: 18) was diluted to 30 μg/ml, and a 96-well plate was then coated with such polymerized peptide overnight. Then, the solution was removed, followed by adding thereto 1 mg/ml BS (PEG)5 (by Pierce, catalog No. 21581) dissolved in a 5 mg/ml NaHCO3 aqueous solution, and then reacted at room temperature for about an hour to bind the linker. Next, there was added 10 mM ethanolamine (EA) or 100 μg/ml RGD pep (SEQ ID NO. 22) dissolved in a 5 mg/ml NaHCO3 aqueous solution, followed by allowing reaction to link CCC2-KGHRGF (SEQ ID NO: 18) to the linker at room temperature for about an hour.
# 5 mg/ml BSA was added to a gel linked with the above RGD motif, to perform blocking for about an hour. […] After air drying, microscopic observation was carried out, and there was evaluated a binding ability of HDF to the RGD motif linked to such polymerized peptide via a linker.
substance,measurement,setting,value
CC(POG)6PRG(POG)5CC (CCPPGPPGPPGPPGPPGPPGPRGPPGPPGPPGPPGPPGCC; not fully specified; hydroxyproline; MOD_RES (4)..(4) 4-Hydroxyproline; MOD_RES (7)..(7) 4-Hydroxyproline; MOD_RES (10)..(10) 4-Hydroxyproline; MOD_RES (13)..(13) 4-Hydroxyproline; MOD_RES (16)..(16) 4-Hydroxyproline; MOD_RES (19)..(19) 4-Hydroxyproline; MOD_RES (25)..(25) 4-Hydroxyproline; MOD_RES (28)..(28) 4-Hydroxyproline; MOD_RES (31)..(31) 4-Hydroxyproline; MOD_RES (34)..(34) 4-Hydroxyproline; MOD_RES (37)..(37) 4-Hydroxyprolin) [CC2],temperature at which the stainless ball completely sank,[1],95 °C
same,time in which peptide turned into a gel,[2],74 h
same,gel collapse on adding water,[3],gel collapse was observed
same,thermal denaturation (change in θ225 as temperature changed),[4],about 75 °C
same,gel-forming capability,"[5]; 1% (w/v) peptide, 10% DMSO, room temperature, up to three days",capable of turning into gels
same,"gel formation, Time (hour) 9","[5]; 1% (w/v) peptide, 9 hour",X
same,"gel formation, Time (hour) 12","[5]; 1% (w/v) peptide, 12 hour",X
same,"gel formation, Time (hour) 15","[5]; 1% (w/v) peptide, 15 hour",X
same,"gel formation, Time (hour) 24","[5]; 1% (w/v) peptide, 24 hour",X
same,"gel formation, Time (hour) 32","[5]; 1% (w/v) peptide, 32 hour",◯
same,"gel formation, Time (hour) 74","[5]; 1% (w/v) peptide, 74 hour",◯
same,"gel formation, Peptide concentration 0.3% (w/v)","[5]; oxidizing conditions: room temperature, three days, 0.3% (w/v)",X
same,"gel formation, Peptide concentration 0.5% (w/v)","[5]; oxidizing conditions: room temperature, three days, 0.5% (w/v)",X
same,"gel formation, Peptide concentration 0.7% (w/v)","[5]; oxidizing conditions: room temperature, three days, 0.7% (w/v)",X
same,"gel formation, Peptide concentration 1.0% (w/v)","[5]; oxidizing conditions: room temperature, three days, 1.0% (w/v)",◯
CCC(POG)4FOGERG(POG)4CCC [CCC2-GFOGER (short)],adhesion and aggregation of human dermal fibroblasts on gel,[6],each human dermal fibroblast elongated and adhered respectively
"GRGDS-NH2 [soluble RGD, soluble peptide having the RGD motif, as a control]",adhesion of HDF,human fibroblast (HDF),binding ability of HDF was not exhibited
